Molecular target: VirC^4A (HMG synthase VirC, Cys114Ala/Gln334Ala/Arg335Ala/Arg338Ala) (Streptomyces virginiae)
Assay: SEC-SAXS

## VirC^4A (HMG synthase VirC, Cys114Ala/Gln334Ala/Arg335Ala/Arg338Ala) (enzyme)
  stoichiometry N: 2

Reference: paper PMC11522927
